From paper PMC2912912 (BMC Structural Biology, 2010)
Where “and” joins values, the source holds several entries; their conditions need not be identical. Equal values may be shown once.

B1: IpgC^21-155 (invasion plasmid gene C, residues 21-155) (domain or fragment)
chain: SGATLKDINAIPDDMMDDIYSYAYDFYNKGRIEEAEVFFRFLCIYDFYNVDYIMGLAAIYQIKEQFQQAADLYAVAFALGKNDYTPVFHTGQCQLRLKAPLKAKECFELVIQHSNDEKLKIKAQSYLDAIQDIKE
B2: full-length IpgC (invasion plasmid gene C) (natural protein)
chain: MSLNITENESISTAVIDAINSGATLKDINAIPDDMMDDIYSYAYDFYNKGRIEEAEVFFRFLCIYDFYNVDYIMGLAAIYQIKEQFQQAADLYAVAFALGKNDYTPVFHTGQCQLRLKAPLKAKECFELVIQHSNDEKLKIKAQSYLDAIQDIKE
B3: IpgC^10-155 (invasion plasmid gene C, residues 10-155) (domain or fragment)
chain: SISTAVIDAINSGATLKDINAIPDDMMDDIYSYAYDFYNKGRIEEAEVFFRFLCIYDFYNVDYIMGLAAIYQIKEQFQQAADLYAVAFALGKNDYTPVFHTGQCQLRLKAPLKAKECFELVIQHSNDEKLKIKAQSYLDAIQDIKE
notes: source: E. coli BL21 (DE3), purified (Ni2+-NTA Sepharose, TEV digestion, Resource Q)

Target: the molecule itself
Assay: SEC; analytical gel filtration, Tricorn Superdex 200 10/300, samples 5 mg/mL, 20 mM Tris-HCl pH 8.0, 200 mM NaCl, 1 mM DTT, 4°C; molecular weight against globular standards

Row | Protein | stoichiometry N
1 | B1 | 4 and 2
2 | B2 | 2
3 | B3 | 2
